US20200317768A1 (published 2020)
Residue numbers refer to the chain shown, from its start.

T1: human FcγRIIaH extracellular domain, C-terminal His-tag (human, UniProt P12318 34-217)
T1 construct: also called human FcγRIIa (type H); FcgRIIaH
T1 sequence: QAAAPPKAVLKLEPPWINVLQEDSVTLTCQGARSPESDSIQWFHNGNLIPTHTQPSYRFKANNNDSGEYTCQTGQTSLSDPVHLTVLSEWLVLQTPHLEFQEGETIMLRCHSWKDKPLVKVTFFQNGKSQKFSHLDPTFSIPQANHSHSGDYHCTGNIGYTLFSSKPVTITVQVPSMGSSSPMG

T2: cynomolgus monkey FcγRIIb extracellular domain, C-terminal His-tag (cynomolgus monkey)
T2 construct: also called cyno FcγRIIb; cynoFcγRIIb
T2 chain: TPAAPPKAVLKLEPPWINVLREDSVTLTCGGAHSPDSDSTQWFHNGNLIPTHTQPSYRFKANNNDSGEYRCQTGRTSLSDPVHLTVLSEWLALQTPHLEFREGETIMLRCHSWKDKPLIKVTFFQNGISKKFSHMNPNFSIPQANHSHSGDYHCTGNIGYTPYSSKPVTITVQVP

T3: cynomolgus monkey FcγRIIa1 extracellular domain, C-terminal His-tag (cynomolgus monkey)
T3 construct: also called cyno FcγRIIa1; cynoFcgRIIa1
T3 chain: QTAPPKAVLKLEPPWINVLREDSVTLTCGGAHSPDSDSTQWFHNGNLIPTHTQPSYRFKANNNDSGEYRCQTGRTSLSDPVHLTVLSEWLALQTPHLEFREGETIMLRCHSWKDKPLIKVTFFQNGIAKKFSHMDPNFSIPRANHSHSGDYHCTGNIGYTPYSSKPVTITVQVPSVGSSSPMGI

T4: cynomolgus monkey FcγRIIa3 extracellular domain, C-terminal His-tag (cynomolgus monkey)
T4 construct: also called cyno FcγRIIa3; cynoFcgRIIa3
T4 chain: T3 chain with P95T, T121A, A128S, H133P, D135N

T5: cynomolgus monkey FcγRIIa2 extracellular domain, C-terminal His-tag (cynomolgus monkey)
T5 construct: also called cyno FcγRIIa2; cynoFcgRIIa2
T5 chain: T3 chain with P95T, T121A, I127K, A128S, K130N, D135N, R142Q

T6: human FcγRIIaR extracellular domain, C-terminal His-tag (human, UniProt P12318 34-217)
T6 construct: also called human FcγRIIa (type R); FcgRIIaR
T6 chain: T1 sequence with H134R

T7: human FcγRIIb extracellular domain, C-terminal His-tag (human, UniProt P31994 43-217)
T7 construct: also called human FcgRIIb; FcgRIIb
T7 sequence: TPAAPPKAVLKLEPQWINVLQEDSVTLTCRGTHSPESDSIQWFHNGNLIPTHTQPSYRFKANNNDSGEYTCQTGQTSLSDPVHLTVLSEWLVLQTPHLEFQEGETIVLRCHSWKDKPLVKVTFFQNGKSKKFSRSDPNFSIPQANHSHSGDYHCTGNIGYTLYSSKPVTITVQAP

T8: cynomolgus monkey FcγRIIb extracellular domain, C-terminal His-tag (cynomolgus monkey)
T8 construct: also called cyno FcγRIIb; cynoFcγRIIb; not shown: His-tag added to C-terminus
T8 chain: T2 chain

B1: MS_M103205H795-SG1/M103202L889-SK1 (antibody, human IgG1, kappa)
heavy: not shown
light: DIVMTQSPATLSLSPGERATLSCTSSQSVYHANWLSWFQQKPGQPPKLLIYWASTLAYGVPSRFSGSGSGTDFTLTISSLQPEDAATYYCAGGYGGGRYAFGQGTKVEIKRTVAAPSVFIFPPSDEQLKSGTASVVCLLNNFYPREAKVQWKVDNALQSGNSQESVTEQDSKDSTYSLSSTLTLSKADYEKHKVYACEVTHQGLSSPVTKSFNRGEC
notes: Parent of the Fc variants; also called MS1032LO06-SG1
B2: M103205H795-MY117/M103202L889-SK1 (antibody, human IgG1, kappa)
heavy: QVTLKESGPVLVKPTETLTLTCTVSGIDLSHDDISWVRQAPGKGLEWVGIISYAGSTYYASWAKGRLTISKDTSKNQVVLTMTNMDPVDTATYYCARGVPAYSHGGDLWGQGTLVTVSSASTKGPSVFPLAPSSKSTSGGTAALGCLVKDYFPEPVTVSWNSGALTSGVHTFPAVLQSSGLYSLSSVVTVPSSSLGTQTYICNVNHKPSNTKVDKKVEPKSCDKTHTCPPCPAPEWLNGPSVFLFPPKPKDTLMISRTPEVTCVVVDVAEEDPEVKFNWYVDGVEVHNAKTKPREEQYNSTYRVVSVLTVLHQDWLNGKEYKCKVSNKALPAPIEKTISKAKGQPREPQVYTLPPSREEMTKNQVSLTCLVKGFYPSDIAVEWESNGQPENNYKTTPMVLDSDGSFFLYSKLTVDKSRWQQGNVFSCSVMHEALHNHYTQKSLSLSP
light: B1 light
notes: Substitutions introduced into M103205H795-SG1; expressed with M103202L889-SK1 as light chain
B3: M103205H795-MY049/M103202L889-SK1 (antibody, human IgG1, kappa)
heavy: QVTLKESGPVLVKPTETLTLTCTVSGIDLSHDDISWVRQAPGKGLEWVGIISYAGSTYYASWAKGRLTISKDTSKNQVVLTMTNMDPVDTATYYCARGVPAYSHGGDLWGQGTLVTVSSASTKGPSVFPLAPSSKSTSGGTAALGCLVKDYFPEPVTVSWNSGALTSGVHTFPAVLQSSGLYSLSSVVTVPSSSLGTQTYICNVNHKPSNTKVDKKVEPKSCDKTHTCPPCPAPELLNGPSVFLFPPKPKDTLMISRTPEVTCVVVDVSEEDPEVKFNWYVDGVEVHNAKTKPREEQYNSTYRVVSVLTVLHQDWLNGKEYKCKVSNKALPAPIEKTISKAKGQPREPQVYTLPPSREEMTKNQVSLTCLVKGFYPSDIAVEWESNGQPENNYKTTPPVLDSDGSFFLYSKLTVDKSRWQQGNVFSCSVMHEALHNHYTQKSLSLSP
light: B1 light
notes: as for B2
B4: M103205H795-MY051/M103202L889-SK1 (antibody, human IgG1, kappa)
heavy: B2 heavy with W236L, A269S, P273G, M398P
light: B1 light
notes: as for B2
B5: M103205H795-MY101/M103202L889-SK1 (antibody, human IgG1, kappa)
heavy: B2 heavy with W236L, A269S, A332K
light: B1 light
notes: also called MS1032LO06-MY101
B6: M103205H795-MY001/M103202L889-SK1 (antibody, human IgG1, kappa)
heavy: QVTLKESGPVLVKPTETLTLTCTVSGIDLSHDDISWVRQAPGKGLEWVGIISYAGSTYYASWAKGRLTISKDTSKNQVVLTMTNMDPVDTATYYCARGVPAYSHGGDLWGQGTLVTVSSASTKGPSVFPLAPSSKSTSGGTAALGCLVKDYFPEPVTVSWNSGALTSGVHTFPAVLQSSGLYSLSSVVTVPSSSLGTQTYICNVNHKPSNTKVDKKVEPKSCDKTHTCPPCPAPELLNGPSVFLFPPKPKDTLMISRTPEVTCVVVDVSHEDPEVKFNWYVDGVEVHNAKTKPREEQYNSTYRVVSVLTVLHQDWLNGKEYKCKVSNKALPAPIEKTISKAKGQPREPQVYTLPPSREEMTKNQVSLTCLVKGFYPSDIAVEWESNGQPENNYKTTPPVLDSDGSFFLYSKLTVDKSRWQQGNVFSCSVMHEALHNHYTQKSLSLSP
light: B1 light
notes: as for B2
B7: M103205H795-MY147/M103202L889-SK1 (antibody, human IgG1, kappa)
heavy: B2 heavy with W236L, L237W, A269S
light: B1 light
notes: as for B2
B8: M103205H795-MY141/M103202L889-SK1 (antibody, human IgG1, kappa)
heavy: B2 heavy with W236L, E270H
light: B1 light
notes: as for B2
B9: M103205H795-MY105/M103202L889-SK1 (antibody, human IgG1, kappa)
heavy: B2 heavy with W236L, S241V, A269S
light: B1 light
notes: as for B2
B10: M103205H795-MY050/M103202L889-SK1 (antibody, human IgG1, kappa)
heavy: B2 heavy with W236L, M398P
light: B1 light
notes: as for B2
B11: M103205H795-MY047/M103202L889-SK1 (antibody, human IgG1, kappa)
heavy: not shown
light: B1 light
notes: as for B2
B12: M103205H795-MY052/M103202L889-SK1 (antibody, human IgG1, kappa)
heavy: B2 heavy with W236L, A269S
light: B1 light
notes: as for B2
B13: M103205H795-MY197/M103202L889-SK1 (antibody, human IgG1, kappa)
heavy: B2 heavy with W236L, A269S, E270D, A332K
light: B1 light
notes: as for B2
B14: M103205H795-MY048/M103202L889-SK1 (antibody, human IgG1, kappa)
heavy: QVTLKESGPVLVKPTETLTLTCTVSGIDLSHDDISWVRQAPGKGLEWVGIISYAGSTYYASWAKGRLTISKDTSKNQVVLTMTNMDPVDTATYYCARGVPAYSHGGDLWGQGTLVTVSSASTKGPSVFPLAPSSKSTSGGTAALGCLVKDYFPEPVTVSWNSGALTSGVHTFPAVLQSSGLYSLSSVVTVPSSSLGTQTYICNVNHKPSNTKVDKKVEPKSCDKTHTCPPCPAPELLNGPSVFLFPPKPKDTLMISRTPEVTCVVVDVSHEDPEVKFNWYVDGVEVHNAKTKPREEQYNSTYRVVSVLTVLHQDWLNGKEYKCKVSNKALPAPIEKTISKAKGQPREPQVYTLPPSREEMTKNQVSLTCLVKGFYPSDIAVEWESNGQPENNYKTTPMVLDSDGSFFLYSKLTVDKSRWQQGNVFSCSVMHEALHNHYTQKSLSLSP
light: B1 light
notes: as for B2
B15: M103205H795-MY115/M103202L889-SK1 (antibody, human IgG1, kappa)
heavy: B2 heavy with W236L
light: B1 light
notes: as for B2
B16: MS_M103205H795-SG1/M103202L889-SK1 (antibody, human IgG1, kappa)
heavy: not shown
light: B1 light
notes: Parent antibody; also called MS1032LO06-SG1

These binders were tested against T1, human FcγRIIaH extracellular domain, … (assay: SPR (Biacore), antibody captured, FcgR analyte).

Kd [nM] | Binder
690 | B1
2200 | B2
1800 | B3
22000 | B4
480 | B5
32 | B6
1200 | B7
12000 | B8
15000 | B9
2100 | B10
2800 | B11
630 | B12
360 | B13
1100 | B14
960 | B15

Molecular target: T2, cynomolgus monkey FcγRIIb extracellular …
Assay: SPR (Biacore), antibody captured, FcgR analyte

Kd [nM] | Binder
1800 | B1
1000 | B2
850 | B3
1900 | B4
550 | B5
1800 | B6
960 | B7
1800 | B8
390 | B9
1400 | B10
2600 | B11
460 | B12
170 | B13
910 | B14
780 | B15

Molecular target: T3, cynomolgus monkey FcγRIIa1 …
Assay: SPR (Biacore), antibody captured, FcgR analyte

Kd [nM] | Binder
3200 | B1
2600 | B2
2700 | B3
4600 | B4
1100 | B5
29000 | B6
2200 | B7
22000 | B8
12000 | B9
4300 | B10
4800 | B11
1400 | B12
580 | B13
14000 | B14
2300 | B15

Molecular target: T4, cynomolgus monkey FcγRIIa3 …
Assay: SPR (Biacore), antibody captured, FcgR analyte

Kd [nM] | Binder
17000 | B1
9900 | B2
6600 | B3
18000 | B4
36000 | B5
15000 | B6
6600 | B7
20000 | B8
13000 | B9
19000 | B10
24000 | B11
3900 | B12
14000 | B13
70000 | B14
76000 | B15

Molecular target: T5, cynomolgus monkey FcγRIIa2 …
Assay: SPR (Biacore), antibody captured, FcgR analyte

Kd [nM] | Binder
5100 | B1
3200 | B2
2300 | B3
4800 | B4
1200 | B5
3600 | B6
2200 | B7
2800 | B8
900 | B9
4200 | B10
3400 | B11
1500 | B12
560 | B13
1700 | B14
2700 | B15

Each binder was assayed against T9, human FcγRIIIaV extracellular domain, C-terminal His-tag (human, UniProt P08637 17-208) (assay: SPR (Biacore), antibody captured, FcgR analyte).
T9 construct: also called human FcgRIIIaV; FcgRIIIaV
T9 sequence (P08637 17-208 F176V): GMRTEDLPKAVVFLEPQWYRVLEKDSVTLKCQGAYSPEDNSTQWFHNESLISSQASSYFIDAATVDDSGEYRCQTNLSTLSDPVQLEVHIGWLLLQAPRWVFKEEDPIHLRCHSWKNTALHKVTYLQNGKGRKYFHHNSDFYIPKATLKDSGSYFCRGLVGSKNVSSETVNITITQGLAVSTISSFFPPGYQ

Kd [nM] | Binder
810 | B1
7300 | B2
7800 | B3
74000 | B4
11000 | B5
18000 | B6
11000 | B7
12000 | B8
5900 | B9
3300 | B10
7700 | B11
4600 | B12
10000 | B13
12000 | B14
8600 | B15

Molecular target: T6, human FcγRIIaR extracellular domain, …
Assay: SPR (Biacore), antibody captured, FcgR analyte

Kd [nM] | Binder
1100 | B1
10000 | B2
78000 | B3
2800 | B4
870 | B5
8200 | B6
1100 | B7
1600 | B8
1400 | B9
1500 | B10
88 | B11
14000 | B12
710 | B13
3100 | B14
640 | B15

These binders were tested against T7, human FcγRIIb extracellular domain, … (assay: SPR (Biacore), antibody captured, FcgR analyte).

Kd [nM] | Binder
4600 | B1
600 | B2
1500 | B3
2000 | B4
490 | B5
7700 | B6
850 | B7
1100 | B8
570 | B9
750 | B10
3700 | B11
720 | B12
890 | B13
3300 | B14
820 | B15

Molecular target: T8, cynomolgus monkey FcγRIIb extracellular …
Assay: SPR (Biacore), antibody captured, FcgR analyte, 25 C

Kd [nM] | Binder
1800 | B16

What follows are binders tested against T10, cynomolgus monkey FcγRIIIaS extracellular domain, C-terminal His-tag (cynomolgus monkey, UniProt A3RFZ7 21-206 (rhesus entry)) in the same assay as above.
T10 construct: also called cyno FcγRIIIaS; cynoFcγRIIIaS; not shown: His-tag added to C-terminus
T10 sequence (A3RFZ7 21-206): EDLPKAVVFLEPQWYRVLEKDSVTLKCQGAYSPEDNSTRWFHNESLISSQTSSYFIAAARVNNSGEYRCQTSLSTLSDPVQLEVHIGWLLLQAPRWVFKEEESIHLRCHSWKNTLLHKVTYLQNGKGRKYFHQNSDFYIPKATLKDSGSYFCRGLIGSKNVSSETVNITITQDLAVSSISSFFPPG

Kd [nM] | Binder
360 | B16
